Measurements reported in patent US20260209353A1 (BINACEA PHARMA, published 2026).

Biological target: T1, hu-CD8A ECD (recombinant, coated on ELISA plates) (human, UniProt P01732 22-182)
T1 construct: also called Human CD8A ECD; not shown: C-terminal (His)x6 or Fc tag
Assay: ELISA, VHH supernatants on hu-CD8A ECD coated plates

T1 sequence (P01732 22-182): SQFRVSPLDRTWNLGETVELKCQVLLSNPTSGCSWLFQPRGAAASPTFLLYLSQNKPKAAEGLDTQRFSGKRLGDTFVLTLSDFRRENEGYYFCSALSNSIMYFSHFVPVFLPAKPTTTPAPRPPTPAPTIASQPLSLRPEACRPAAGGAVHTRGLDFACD

Row | Binder | binding result
1 | Clone 3C3 VHH (secreted VHH in TG1 supernatant) (VHH, Expressed from phagemid pADL-23c) VHH: QVQLVDSGGGLVQAGGSLRVSCAASGLTVSSEHMGWFRQAPGKQREFVAAISGNGGSTYYADSVKGRFTISRDNAKNTVYLQMNSLKPEDTAVYTCAADRQVWRVTSYHDYDYDSWGQGTLVTVSS | binds
2 | Clone 1D7 VHH (secreted VHH in TG1 supernatant) (VHH, Expressed from phagemid pADL-23c) VHH: QVQLQESGGGLVQAGGSLRLSCAASGFTFDDYAIGWFRQAPGKEREGVSCISNIDGRTYYADSVKGRFTISSDNAKNTVYLQMNSLKPEDTAVYYCAAEGLHSCRDLYYGMDYWGKGTLVTVSS | binds
3 | Clone 2G7 VHH (secreted VHH in TG1 supernatant) (VHH, Expressed from phagemid pADL-23c) VHH: QVKLEESGGGLVQAGGSLRLSCAASGFTFDDYAIGWFRQAPGKEREGVSCISNIDGSTYYADSVKGRFTISSDNAKNTVYLQMNSLKPEDTAVYYCAAEGLHSCRDLYYGMDHWGKGTLVTVSS | binds
4 | Clone 1E2 VHH (secreted VHH in TG1 supernatant) (VHH, Expressed from phagemid pADL-23c) VHH: QVQLQESGGGLVQAGGSLRLSCAASGFTFDDYAIGWFRQAPGKEREGVSCISNIDGRTYYADSVKGRFTISSDNAKNTVYLQMNSLKPEDTAVYYCAAEGLHPCRDLYYGMDYWGKGTLVTVSS | binds
5 | Clone 1B3 VHH (secreted VHH in TG1 supernatant) (VHH, Expressed from phagemid pADL-23c) VHH: QVQLQESGGGLVQAGGSLRLSCAASGFTFDDYAIGWFRQAPGKEREGVSCISNIDGHTYYADSVKGRFTISSDNAKNTVYLQMNSLKPEDTAVYYCAAEGLHSCKDLYYGMDYWGKGTLVTVSS | binds
6 | Clone 2E7 VHH (secreted VHH in TG1 supernatant) (VHH, Expressed from phagemid pADL-23c) VHH: QVQLQESGGGLVQAGGSLRLSCAASGVPFDDYAIGWFRQAPGKEREGVSCISNIDGSTYYADSVKGRFTISSDNAKNTVYLQMNSLKPEDTAVYYCAAEGLHSCRDLYYGMDYWGKGTLVTVSS | binds
7 | Clone 2G1 VHH (secreted VHH in TG1 supernatant) (VHH, Expressed from phagemid pADL-23c) VHH: QVQLQESGGGLVQAGGSLRLSCAASGFTFDDYAIGWFRQAPGKEREGVSCISSIDGSTYYADSVKGRFTISRDNDKNTVYLQMNSLKPEDTAVYYCTAEGLHSCRDLYYGMDYWGKGTQVTVSS | binds
8 | Clone 2B10 VHH (secreted VHH in TG1 supernatant) (VHH, Expressed from phagemid pADL-23c) VHH: QVQLVESGGGLVQAGGSLRLSCAASGFTFDDYAIGWFRQAPGKEREGVSCISNIDGSTYYADSVKGRFTISSDNAKNTVYLQMNSLKPEDTAVYYCAAEGLRSCRDLYYGMDYWGKGTLVTVSS | binds
9 | Clone 1B1 VHH (secreted VHH in TG1 supernatant) (VHH, Expressed from phagemid pADL-23c) VHH: QVQLQESGGGLVQAGGSLKLSCAASGFTFNDYAIGWFPQAPGKEREGVSCIINIDGSTYYADSVKGRFPISSDNAKNTVYLQMNSLKPEDTAVYYCAAEGLHSCRDLYYGMDYWGKGTLVTVSS | binds
